Data taken from patent US20120134993A1 (ZymoGenetics, published 2012).
Residue numbers refer to the chain shown, from its start. Numbers in names are those of the source.

T1: recombinant human FGF6 (human, UniProt P10767 83-208, limits assumed)
T1 sequence (looked up): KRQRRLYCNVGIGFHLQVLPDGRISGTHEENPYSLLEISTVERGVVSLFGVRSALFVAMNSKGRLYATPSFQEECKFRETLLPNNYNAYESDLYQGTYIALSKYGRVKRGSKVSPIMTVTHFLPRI

T2: recombinant human FGF4 (human, UniProt P08620 31-206, limits assumed)
T2 sequence (looked up): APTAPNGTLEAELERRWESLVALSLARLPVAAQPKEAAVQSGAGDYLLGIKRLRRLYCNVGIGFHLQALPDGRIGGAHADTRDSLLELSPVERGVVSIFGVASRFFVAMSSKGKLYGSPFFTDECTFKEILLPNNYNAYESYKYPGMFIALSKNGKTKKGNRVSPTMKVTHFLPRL

T3: recombinant human FGF-17 (human, UniProt O60258 23-216)
T3 sequence (looked up): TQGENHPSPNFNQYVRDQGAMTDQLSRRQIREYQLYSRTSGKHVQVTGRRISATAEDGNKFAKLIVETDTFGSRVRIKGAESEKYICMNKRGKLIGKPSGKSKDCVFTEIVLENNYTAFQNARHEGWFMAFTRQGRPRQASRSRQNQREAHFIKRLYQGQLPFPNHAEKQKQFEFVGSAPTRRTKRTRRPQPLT

T4: recombinant human FGF-8b (human, UniProt P55075-3 23-215)
T4 sequence (looked up): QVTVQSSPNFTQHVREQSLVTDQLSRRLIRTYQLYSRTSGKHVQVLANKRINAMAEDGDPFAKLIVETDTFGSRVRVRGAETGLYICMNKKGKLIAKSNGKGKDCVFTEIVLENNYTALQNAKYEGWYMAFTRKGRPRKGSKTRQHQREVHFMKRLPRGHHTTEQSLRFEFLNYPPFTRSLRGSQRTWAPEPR

B1: FGFR3IIIc(143-375) Fc5, truncated FGFR3-Fc (A2518F) (Fc fusion)
chain: DTGVDTGAPYWTRPERMDKKLLAVPAANTVRFRCPAAGNPTPSISWLKNGREFRGEHRIGGIKLRHQQWSLVMESVVPSDRGNYTCVVENKFGSIRQTYTLDVLERSPHRPILQAGLPANQTAVLGSDVEFHCKVYSDAQPHIQWLKHVEVNGSKVGPDGTPYVTVLKTAGANTTDKELEVLSLHNVTFEDAGEYTCLAGNSIGFSHHSAWLVVLPAEEELVEADEAGSVYAGEPKSSDKTHTCPPCPAPEAEGAPSVFLFPPKPKDTLMISRTPEVTCVVVDVSHEDPEVKFNWYVDGVEVHNAKTKPREEQYNSTYRVVSVLTVLHQDWLNGKEYKCKVSNKALPSSIEKTISKAKGQPREPQVYTLPPSRDELTKNQVSLTCLVKGFYPSDIAVEWESNGQPENNYKTTPPVLDSDGSFFLYSKLTVDKSRWQQGNVFSCSVMHEALHNHYTQKSLSLSPGK
notes: This is the form with the second and third Ig-like domains; also called FGFR3 A2518F; FGFR3IIIc(143_375) C(Fc5)
B2: FGFR3IIIc(143-375)(P250R) Fc5, truncated FGFR3-Fc P250R (A2519F) (Fc fusion)
chain: B1 chain with P108R
notes: also called FGFR3 A2519F; FGFR3IIIc(143_375) (P250R) C(Fc5)
B3: FGFR3IIIc(143-375)(S249W) Fc5, truncated FGFR3-Fc S249W (A2258F) (Fc fusion)
chain: B1 chain with S107W
notes: also called FGFR3 A2258F; FGFR3A2258F
B4: FGFR3IIIc(23-375) Fc5, full-length FGFR3-Fc (A2257F) (Fc fusion)
chain: ESLGTEQRVVGRAAEVPGPEPGQQEQLVFGSGDAVELSCPPPGGGPMGPTVWVKDGTGLVPSERVLVGPQRLQVLNASHEDSGAYSCRQRLTQRVLCHFSVRVTDAPSSGDDEDGEDEAEDTGVDTGAPYWTRPERMDKKLLAVPAANTVRFRCPAAGNPTPSISWLKNGREFRGEHRIGGIKLRHQQWSLVMESVVPSDRGNYTCVVENKFGSIRQTYTLDVLERSPHRPILQAGLPANQTAVLGSDVEFHCKVYSDAQPHIQWLKHVEVNGSKVGPDGTPYVTVLKTAGANTTDKELEVLSLHNVTFEDAGEYTCLAGNSIGFSHHSAWLVVLPAEEELVEADEAGSVYAGEPKSSDKTHTCPPCPAPEAEGAPSVFLFPPKPKDTLMISRTPEVTCVVVDVSHEDPEVKFNWYVDGVEVHNAKTKPREEQYNSTYRVVSVLTVLHQDWLNGKEYKCKVSNKALPSSIEKTISKAKGQPREPQVYTLPPSRDELTKNQVSLTCLVKGFYPSDIAVEWESNGQPENNYKTTPPVLDSDGSFFLYSKLTVDKSRWQQGNVFSCSVMHEALHNHYTQKSLSLSPGK
notes: also called FGFR3 A2257F; FGFR3IIIc(23_375) C(Fc5)
B5: FGFR3IIIc(23-375)(P250R) Fc5, full-length FGFR3-Fc P250R (A2259F) (Fc fusion)
chain: B4 chain with P228R
notes: also called FGFR3 A2259F; FGFR3IIIc(23_375) (P250R) C(Fc5)
B6: FGFR2alphaIIIc(145-377)(S252W) Fc5, truncated FGFR2-Fc S252W (A2560F) (Fc fusion)
chain: SENSNNKRAPYWTNTEKMEKRLHAVPAANTVKFRCPAGGNPMPTMRWLKNGKEFKQEHRIGGYKVRNQHWSLIMESVVPSDKGNYTCVVENEYGSINHTYHLDVVERWPHRPILQAGLPANASTVVGGDVEFVCKVYSDAQPHIQWIKHVEKNGSKYGPDGLPYLKVLKAAGVNTTDKEIEVLYIRNVTFEDAGEYTCLAGNSIGISFHSAWLTVLPAPGREKEITASPDYLEEPKSSDKTHTCPPCPAPEAEGAPSVFLFPPKPKDTLMISRTPEVTCVVVDVSHEDPEVKFNWYVDGVEVHNAKTKPREEQYNSTYRVVSVLTVLHQDWLNGKEYKCKVSNKALPSSIEKTISKAKGQPREPQVYTLPPSRDELTKNQVSLTCLVKGFYPSDIAVEWESNGQPENNYKTTPPVLDSDGSFFLYSKLTVDKSRWQQGNVFSCSVMHEALHNHYTQKSLSLSPGK
notes: also called FGFR2 A2560F; construct #1949

Biological target: T1, recombinant human FGF6
Experiment: SPR (Biacore T100), FGFR-Fc captured on protein A, FGF6 analyte with heparin, bivalent analyte model (KD1)
Experimental: (§1) Materials and Methods: Binding kinetics and affinity studies were performed on a Biacore T100™ system (GE Healthcare, Piscataway, N.J.). Methods for the Biacore T100™ were programmed using Biacore T100™ Control Software, v 2.0. Since each of the FGF receptor molecules contained a human Fc domain, biotinylated protein-A (Thermo Fisher Scientific Inc, Rockford, Ill.) was used as a capture reagent for these studies. Biotinylated protein-A was diluted to concentration of 50 μg/mL in HBS-EP buffer (10 mM HEPES, 150 mM NaCl, 3 mM EDTA, 0.05% Surfactant P20; GE Healthcare, Piscataway, N.J.), and then captured to all four flow cells of a SA (streptavidin) sensor chip. A density of approximately 1100 RU was obtained for each flow cell. Each FGF receptor molecule was subsequently captured via protein-A onto a separate flow cell of the SA chip at an approximate density of 150-250 RU. The Biacore instrument measures the mass of protein bound to the sensor chip surface, and thus, capture of the receptor was verified for each cycle.
(§2) For kinetic binding studies, serial 1:5 dilutions of FGF ligands were prepared from 200 nM-0.06 nM. These samples were injected over the surface and allowed to specifically bind to the FGF receptor captured on the sensor chip. Injections of each ligand concentration were performed with an association time of 7 minutes and dissociation time of 15 minutes. Kinetic binding studies were performed with a flow rate of 50 μL/min. All binding experiments were performed at 25° C. in HBS-P buffer (10 mM HEPES, 150 mM NaCl, 0.05% Surfactant P20, pH 7.4; GE Healthcare, Piscataway, N.J.), containing 50 μg/mL heparin (Calbiochem, La Jolla, Calif.).
(§3) Between cycles, the flow cell was washed with 20 mM hydrochloric acid to regenerate the surface. This wash step removed both the captured FGF receptor and any bound FGF ligand from the protein-A surface, and allowed for the subsequent binding of the next test sample. Data was compiled using the Biacore T100™ Evaluation software (version 2.0). Data was processed by subtracting reference flow cell and blank injections. Baseline stability was assessed to ensure that the regeneration step provided a consistent binding surface throughout the sequence of injections. Duplicate injection curves were checked for reproducibility. Binding curves were globally fit to the bivalent analyte model.

Binder	Kd [nM]
B1	300
B2	20
B3	2
B4	200
B5	20

Biological target: T1, recombinant human FGF6
Experiment: SPR (Biacore T100), FGFR-Fc captured on protein A, FGF6 analyte with heparin, bivalent analyte model (ka1)
Experimental: as §1, §2, §3

Binder	kon [M⁻¹ s⁻¹]
B1	200000
B2	200000
B3	300000
B4	400000
B5	300000

Biological target: T1, recombinant human FGF6
Experiment: cell-based or functional assay

Binder	IC50, FGF-stimulated HUVEC proliferation (3H-thymidine) [nM]
B3	0.78

Biological target: recombinant human FGF2 (human, UniProt P09038 143-288, limits assumed)
Experiment: cell-based or functional assay

Chain of recombinant human FGF2 (P09038 143-288 limits assumed): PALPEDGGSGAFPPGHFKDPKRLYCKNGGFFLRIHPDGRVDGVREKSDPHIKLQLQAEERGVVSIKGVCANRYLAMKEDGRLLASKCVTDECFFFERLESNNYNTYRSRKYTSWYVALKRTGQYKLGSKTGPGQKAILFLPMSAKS

Binder	IC50, FGF-stimulated HUVEC proliferation (3H-thymidine) [nM]
B3	0.67

Biological target: T2, recombinant human FGF4
Experiment: cell-based or functional assay

Binder	IC50, FGF-stimulated HUVEC proliferation (3H-thymidine) [nM]
B3	0.68

Biological target: recombinant human FGF1 (human, UniProt P05230 16-155)
Experiment: cell-based or functional assay

Chain of recombinant human FGF1 (P05230 16-155 limits assumed): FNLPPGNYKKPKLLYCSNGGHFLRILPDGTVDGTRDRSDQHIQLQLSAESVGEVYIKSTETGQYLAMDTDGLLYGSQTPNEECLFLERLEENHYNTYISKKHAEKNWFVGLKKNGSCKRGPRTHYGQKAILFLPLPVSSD

Binder	IC50, FGF-stimulated HUVEC proliferation (3H-thymidine) [nM]
B3	0.55

Biological target: T3, recombinant human FGF-17
Experiment: direct binding ELISA, FGF-17 coated, FGFR-Fc titrated with heparin, anti-human Fc-HRP
Experimental: (§4) To determine the binding capability of FGFR-Fc to their respective ligands, an ELISA was run. Recombinant human FGF-8b or FGF-17 (R&D Systems) was plated at 100 nM on a Nunc Maxisorp 96-well plate for 1 h at room temperature with shaking. The plates were blocked with BLOTTO (Thermo Fisher Scientific, Rockford, Ill.) for 1 h at room temperature, then washed 5 times with ELISA C buffer (137 mM NaCl, 2.7 mM KCl, 7.2 mM Na₂HPO₄, 1.5 mM KH₂PO₄, 0.05% (v/w) polysorbate 20, pH 7.2). FGFR-Fcs were diluted to 100 nM with PBS/0.1×BLOTTO/10 ug/ml porcine heparin (Sigma, St. Louis, Mo.) and then 1:2 serial dilutions were made, ending at 0.10 nM. 100 μL of FGFR-Fcs were plated and incubated at 4° C. overnight. The following day, the plates were washed 5 times with ELISA C and then incubated with 2.5 μg/mL horseradish peroxidase-conjugated anti-human Fc antibody (Jackson ImmunoResearch Laboratories, West Grove, Pa.) for 1 h at room temperature with shaking. After 5 washes with ELISA C, 100 μL of OPD in citrate buffer (5 mg of o-phenylenediamine in 63 mM sodium citrate, 37 mM citric acid, pH 5.0, 0.03% H₂O₂) was added for detection. After 2-5 minutes, the reaction was stopped with 1 N H₂SO₄. The plates were read at 490 nm using SoftMaxPro software.

Binder	IC50 [nM]
B1	3.79
B2	37.6
B3	1.31
B6	223
B4	20.1
B5	45.3

Biological target: T4, recombinant human FGF-8b
Experiment: cell-based or functional assay

Binder	Proliferation IC50, FGF8b-stimulated LNCap cells (3H-thymidine) [nM]
B2	0.01
B3	0.02

Biological target: human FGF-9 (human, UniProt P31371 4-208)
Experiment: cell-based or functional assay

Binder	Proliferation IC50, FGF-9-stimulated HCO osteoblasts (3H-thymidine) [nM]
B1	0.77
B2	0.99
B3	0.75
B4	1.19
B5	1.14

Biological target: T1, recombinant human FGF6
Experiment: SPR (Biacore T100), FGFR-Fc captured on protein A, FGF6 analyte with heparin, bivalent analyte model (KA1)
Experimental: as §1, §2, §3

Binder	Ka [M⁻¹]
B1	3e+06
B2	5e+07
B3	5e+08
B4	7e+06
B5	6e+07

Biological target: T4, recombinant human FGF-8b
Experiment: direct binding ELISA, FGF-8b coated, FGFR-Fc titrated with heparin, anti-human Fc-HRP
Experimental: as §4

Binder	IC50 [nM]
B1	16.4
B2	9.7
B3	10
B4	41.9
B5	52.6

Biological target: T1, recombinant human FGF6
Experiment: SPR (Biacore T100), FGFR-Fc captured on protein A, FGF6 analyte with heparin, bivalent analyte model (kd1)
Experimental: as §1, §2, §3

Binder	koff [s⁻¹]
B1	0.06
B2	0.004
B3	0.0006
B4	0.06
B5	0.005
